Data as given in publication PMC9972567.

Biological target: Ep300 (UniProt B2RWS6)
Test: anti-V5 IP, Ep300 immunoblot
Settings: reference: wild type; sites S656

- binding against the reference: weaker
Substance: PIMT/TGS1 (human PIMT-V5) (from UniProt Q96RS0) S656A
